One block for each binder: values may come before it.
How the values were obtained:
[1] = target: T1, flag-tagged human TEM8 on 293 cells (293/Flag-hTEM8) (human, UniProt Q9H6X2 33-564); assay: flow cytometry titration on 293/Flag-hTEM8 cells, FITC anti-mouse secondary (FIG. 9B)
T1 construct: also called 293/Flag-huTEM8; 293/hFlag-TEM8

[2] = target: T1, flag-tagged human TEM8 on 293 cells …; assay: immunofluorescence and flow cytometry on 293/Flag-hTEM8 cells
[3] = target: T2, hTEM8(ED)-Fc fusion protein (human; mouse, UniProt Q9H6X2 33-321); assay: ELISA on biotinylated human TEM8-Fc captured on neutravidin
T2 construct: also called TEM8-Fc; human TEM8-Fc
T2 sequence: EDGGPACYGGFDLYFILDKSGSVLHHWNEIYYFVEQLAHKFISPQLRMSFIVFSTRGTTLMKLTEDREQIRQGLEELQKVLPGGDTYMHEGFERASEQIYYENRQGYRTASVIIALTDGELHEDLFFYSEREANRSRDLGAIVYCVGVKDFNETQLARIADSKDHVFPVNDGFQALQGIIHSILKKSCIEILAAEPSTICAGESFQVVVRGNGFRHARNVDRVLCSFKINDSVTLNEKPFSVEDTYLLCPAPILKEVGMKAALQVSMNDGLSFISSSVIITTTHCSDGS

[4] = target: T3, mouse TEM8 on 293 cells (293/mTEM8) (mouse, UniProt Q9CZ52 31-562); assay: flow cytometry on 293/mTEM8 cells (FIG. 8C)
T3 construct: whole, on cells

EC50 [1]: 2.8 nM
B1: L5-mIgG2a (antibody, V domains shown)
VH: QVQLVESGGGLVQPGGSLRLSCAASGFTFNSYGLSWVRQAPGKGLEWVSNISSNGSYTYYADSVKGRFTISRDNSKNTLYLQMNSLRAEDTAVYYCARAGYGLFDVWGQGTLVTVSS
VL: DIELTQPPSVSVAPGQTARISCSGDKLREYYVHWYQQKPGQAPVLVIYGDNKRPSGIPERFSGSNSGNTATLTISGTQAEDEADYYCSSWAGSRSGTVFGGGTKLTVL
notes: also called L5 full IgG

binding result [2]: binds | binding result [3]: binds | binding result [4]: binds
B2: L1 Fab (Fab, V domains shown)
VH: QVQLVESGGGLVQPGGSLRLSCAASGFTFNSYAMSWVRQAPGKGLEWVSLISSGSSTYYADSVKGRFTISRDNSKNTLYLQMNSLRAEDTAVYYCARAGFKFDNWGQGTLVTVSS
VL: DIELTQPPSVSVAPGQTARISCSGDSIPNYSVSWYQQKPGQAPVLVIYADSNRPSGIPERFSGSNSGNTATLTISGTQAEDEADYYCQSYDNTSPDLVFGGGTKLTVLG
